Results from patent US20140227283A1 (INSERM INSTITUT NATIONAL DE LA SANTE ET DE LA RECHERCHE …, published 2014).

Columns and labels:
[1] = molecular target: T1, human Mer-Fc (human, UniProt Q12866 26-499, limits assumed); assay: ELISA on coated Fc fusion proteins
T1 construct: also called h-Mer; not shown: Fc part
T1 sequence (looked up): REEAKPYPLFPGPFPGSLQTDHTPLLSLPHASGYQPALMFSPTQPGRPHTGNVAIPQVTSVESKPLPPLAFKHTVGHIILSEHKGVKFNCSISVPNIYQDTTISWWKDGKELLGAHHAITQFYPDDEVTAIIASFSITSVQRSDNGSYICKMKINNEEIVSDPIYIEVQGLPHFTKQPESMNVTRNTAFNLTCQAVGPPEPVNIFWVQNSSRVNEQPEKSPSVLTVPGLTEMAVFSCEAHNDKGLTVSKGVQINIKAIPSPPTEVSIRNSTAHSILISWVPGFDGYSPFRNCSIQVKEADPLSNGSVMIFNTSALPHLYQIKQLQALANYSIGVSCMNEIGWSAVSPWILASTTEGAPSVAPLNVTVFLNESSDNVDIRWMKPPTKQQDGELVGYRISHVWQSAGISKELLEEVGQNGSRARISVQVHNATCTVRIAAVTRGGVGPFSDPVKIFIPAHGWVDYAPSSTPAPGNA
Protocol: (§1) FIG. 1: ELISA experiments to investigate the affinity and the specificity of mouse monoclonal antibodies against hAxl. […] After washing, HRP-conjugated anti-mouse IgG was added.

[2] = molecular target: T2, mouse Axl-Fc (mouse, UniProt Q00993 20-443, limits assumed); assay: ELISA on coated Fc fusion proteins
T2 construct: also called m-Axl; not shown: Fc part
T2 sequence (looked up): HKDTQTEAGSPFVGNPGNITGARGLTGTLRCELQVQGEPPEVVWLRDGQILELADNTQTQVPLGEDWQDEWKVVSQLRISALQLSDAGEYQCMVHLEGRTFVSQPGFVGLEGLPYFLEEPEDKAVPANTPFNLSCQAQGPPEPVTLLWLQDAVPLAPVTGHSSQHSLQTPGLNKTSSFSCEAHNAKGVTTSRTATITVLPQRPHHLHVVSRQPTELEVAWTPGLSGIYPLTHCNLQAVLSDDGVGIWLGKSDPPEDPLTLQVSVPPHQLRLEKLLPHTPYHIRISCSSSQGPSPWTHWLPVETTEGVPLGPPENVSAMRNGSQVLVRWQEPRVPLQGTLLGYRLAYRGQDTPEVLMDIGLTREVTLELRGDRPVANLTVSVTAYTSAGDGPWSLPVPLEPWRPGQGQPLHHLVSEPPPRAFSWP
Protocol: as §1

[3] = molecular target: T3, Tyro-3-Fc (h-Tyro-3) (human, UniProt Q06418 41-428, limits assumed); assay: ELISA on coated Fc fusion proteins
T3 construct: also called human Tyro-3-Fc; not shown: Fc part
T3 sequence (looked up): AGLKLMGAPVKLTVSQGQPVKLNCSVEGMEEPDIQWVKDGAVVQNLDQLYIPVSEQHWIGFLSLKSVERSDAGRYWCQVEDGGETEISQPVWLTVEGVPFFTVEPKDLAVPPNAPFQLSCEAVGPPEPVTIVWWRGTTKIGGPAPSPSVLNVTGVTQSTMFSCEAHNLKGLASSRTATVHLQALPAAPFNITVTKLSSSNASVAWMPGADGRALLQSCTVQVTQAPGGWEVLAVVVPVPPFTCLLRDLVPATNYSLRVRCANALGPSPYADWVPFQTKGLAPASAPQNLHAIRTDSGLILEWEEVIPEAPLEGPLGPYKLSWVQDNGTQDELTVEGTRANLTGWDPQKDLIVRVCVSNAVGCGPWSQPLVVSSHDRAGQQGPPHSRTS
Protocol: as §1

[4] = molecular target: human Axl extracellular domain fused to human Fc domain (hAxl-hFc protein; R&D system) (human) (UniProt P30530); assay: SPR (BIAcore-3000), hAxl-hFc amine-coupled on a CM5 chip, mAb injected at 2 to 133 nM, 25° C., one-to-one Langmuir model
[5] = molecular target: human Axl extracellular domain fused to human Fc domain (hAxl-hFc protein; R&D system) (human) (UniProt P30530); assay: SPR (BIAcore), hAxl-hFc on a CM5 chip; 3E3-E8 (666 nM) injected second, after Gas6 (625 nM), without removing Gas6
[6] = molecular target: T4, human Axl on the surface of cells (human, UniProt P30530 26-894); assay: flow cytometry on A549 cells
T4 construct: whole, on cells; Endogenous Axl of the cell lines; also called cell surface Axl; Axl receptor
T4 sequence (looked up): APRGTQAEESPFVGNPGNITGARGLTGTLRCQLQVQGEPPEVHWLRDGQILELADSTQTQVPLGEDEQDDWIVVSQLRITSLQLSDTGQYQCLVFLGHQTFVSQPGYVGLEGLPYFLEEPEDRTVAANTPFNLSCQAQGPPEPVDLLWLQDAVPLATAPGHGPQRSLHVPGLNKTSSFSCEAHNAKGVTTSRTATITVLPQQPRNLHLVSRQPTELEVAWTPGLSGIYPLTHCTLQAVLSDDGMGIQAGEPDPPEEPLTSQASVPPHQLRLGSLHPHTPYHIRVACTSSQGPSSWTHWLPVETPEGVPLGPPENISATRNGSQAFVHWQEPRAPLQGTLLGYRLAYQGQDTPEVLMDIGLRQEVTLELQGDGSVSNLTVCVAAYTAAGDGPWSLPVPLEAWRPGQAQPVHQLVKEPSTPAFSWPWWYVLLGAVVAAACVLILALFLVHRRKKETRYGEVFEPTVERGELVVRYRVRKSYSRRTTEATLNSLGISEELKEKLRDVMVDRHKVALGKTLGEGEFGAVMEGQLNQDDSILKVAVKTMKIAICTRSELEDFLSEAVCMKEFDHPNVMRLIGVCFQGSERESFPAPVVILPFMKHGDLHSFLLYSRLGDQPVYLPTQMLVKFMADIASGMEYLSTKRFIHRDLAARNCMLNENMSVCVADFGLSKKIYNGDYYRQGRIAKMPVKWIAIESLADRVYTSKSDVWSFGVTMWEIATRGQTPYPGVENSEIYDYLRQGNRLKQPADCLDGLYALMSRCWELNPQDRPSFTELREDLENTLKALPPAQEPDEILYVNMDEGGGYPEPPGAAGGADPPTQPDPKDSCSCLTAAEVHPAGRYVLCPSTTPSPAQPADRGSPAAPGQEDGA
Text: FIG. 2: Flow cytometry analysis of cell surface Axl in A549.

[7] = molecular target: human Axl extracellular domain fused to human Fc domain (hAxl-hFc protein; R&D system) (human) (UniProt P30530); assay: SPR (BIAcore), hAxl-hFc on a CM5 chip; 3E3-E8 (666 nM) injected first, before Gas6

- binding result [1]: no binding
- binding result [2]: no binding
- binding result [3]: no binding
- Kd [4]: 1.6 nM
- Response (RU) [5]: 2420 RU
- binding result [6]: binds
- Response (RU) [7]: 2500 RU
B1: murine anti-Axl monoclonal antibody 3E3E8 (antibody, V domains shown)
VH: QVQLKESGPGLVAPSQSLSITCSVSGFSLTNYAVHWVRQPPGKGLEWLGVIWAGGSTNYNSALMSRLRISKDNSKSQVFFKMNSLQTDDTAMYYCARYYGSSLYPMDYWGQGTSVTVSS
VL: DIVMTQAAPSVPVTPGESVSISCRSSKSLLHSNGNTYLYWFLQRPGQSPQLLIYRMSNLASGVPDRFSGSGSGTVFTLRISGVEAEDVGVYYCMQHLEYPWTFGGGTELEIK
notes: also called mAb 3E3-E8; mAb 3E3E8
